Test results as given in patent US20240400618A1.

Target: pxEBN4-ACE2-AAA-His (human) (UniProt Q9BYF1)

Substance	Kd [pM]
SA, Beta, pxENB9-FLS-B.1.351 (from UniProt P0DTC2 15-1213) (ligand)	1570
UK, Alpha, pxENB9-FLS (from UniProt P0DTC2 15-1213) (ligand)	1.16
